# Experiment: soluble on expression in E. coli; label from the status in PepcDB or PDB records
row,Sequence,soluble on expression in E. coli
1,MGSKVAGKKKTQNDNKLDNENGSQQRENINTKTLLKGNLKISNYKYLEVIQLEHAVTKLVESYNKIIELSPNLVAYNEAVNNQDRVPVQILPSLSRYQLKLAAELKTLHDLKKDAILTEITDYENEFDTEQKQPILQEISKADMEKLEKLEQVKREKREKIDVNVYENLNEKEDEEEDEGEDSYDPTKAGDIVKATKWPPKLPEIQDLAIRARVFIHKSTIKDKVYLSGSEMINAHNERLEFLGDSILNSVMTLIIYNKFPDYSEGQLSTLRMNLVSNEQIKQWSIMYNFHEKLKTNFDLKDENSNFQNGKLKLYADVFEAYIGGLMEDDPRNNLPKIRKWLRKLAKPVIEEATRNQVALEKTDKLDMNAKRQLYSLIGYASLRLHYVTVKKPTAVDPNSIVECRVGDGTVLGTGVGRNIKIAGIRAAENALRDKKMLDFYAKQRAAIPRSESVLKDPSQKNKKRKFSDTS,soluble
2,MGSRTGSREEHSLQFLNLTKMTTTTASNLPWVEKYRPSKLDELVAHEQIVKTLTKFIENRTLPHLLFYGPPGTGKTTTVLAAARQMYSPTKMASMVLELNASDERGIDVVRNTIVNFAQTKGLQAFSTSSNTGTVPFKLVILDEADAMTKDAQNALRRLDKTDYEQNIIIHNVNIYFRVIEKYTDNVRFCIICNYLASIVPAIQSRCTRFRFAPLDQKLIVPRLEYIVETEQLKMTPDGKDALLIVSKGDMRTVINTLQSTAMSFDTVSENTVYQCIGQPTPKEMKEVVKTLLNDPSKKCMNTIQTKLFENGYALQDVITHLHDFVFTLDIPDEAMSAIITGLGEVEENLSTGCSNETQLAAVVAAFFEAKRLCVKEMKNLEIEDMEF,not soluble
3,MGSSHHHHHHGGTGENLYFQGGSGMKSVFITGGNRGIGLETARQMGKLGYYVIISCRDEEKAKAAIEKVSAEGVKADYVIMDVVDESSVAKAAAEVSKKVNGVLDALINNAGKAAPSGDMSRVNLDEMRRCYEVNVIGTVCVTNHFLEMVKKSSAGRIVNVGSIKGSCQLEVTALSHTPYNCSKAALNMYTVNLASSLKDTNVKVNCAHPGWVKTDMGGPQAPLEVTEGAETSVYLATLPADGPTGGFFHKRDRLPW,soluble
4,MGSSHHHHHHGGTGENLYFQGGSGSNRKKVAYFHDPDIGSYYYGAGHPMKPQRIRMTHSLIVSYNLYKYMEVYRPHKSDVNELTLFHDYEYIDFLSSISLENYREFTYQLKRFNVGEATDCPVFDGLFQFQQSCAGASIDGASKLNHHCADICVNWSGGLHHAKMSEASGFCYINDIVLGILELLKYHARVMYIDIDVHHGDGVEEAFYVTHRVMTVSFHKFGDYFPGTGDITDVGVNHGKYYSVNVPLNDGMTDDAFVDLFKVVIDKCVQTYRPGAIIIQCGADSLTGDRLGRFNLTIKGHARCVEHVRSYNIPLLVLGGGGYTIRNVSRCWAYETGVVLNKHHEMPDQISLNDYYDYYAPDFQLHLQPSNIPNYNSPEHLSRIKMKIAENLRHIEHAPGVQFSYVPPDFFNSDIDDESDKNQYELKDDSGGGRAPGTRAKEHSTTHHLRRKNYDDDFFDLSDRDQSIVPY,not soluble
5,MGSSHHHHHHGKTIFVIVPTNEEQVAFLEALAKQDELNFDWQNPPTEPGQPVVILIPSDMVEWFLEMLKAKGIPFTVYVEEGGSENLYFQGGGGGGPKREEQMYMHIRKVYGDNIPEELLQRAKRQREAQDALTLTNMLRTPTPGQTSNALQNDLDPRALIELKSWNGH,soluble
6,MGSSHHHHHHGKTIFVIVPTNEEQVAFLEALAKQDELNFDWQNPPTEPGQPVVILIPSDMVEWFLEMLKAKGIPFTVYVEEGGSENLYFQGGGGGGVRYVQRPWFSPLGFMASSPTAYAPMMTCIALALIFPFRYQISEYFERQRDGVHVELRRKAVKYYAEMERMHRRQALVNLESIQDDNAPHRLSAVLSVESIQAGHLDQEYNYWYAHERDAIRAEKLMMEIRELKAKMPADSA,not soluble
7,MGSSHHHHHHGKTIFVIVPTNEEQVAFLEALAKQDELNFDWQNPPTEPGQPVVILIPSDMVEWFLEMLKAKGIPFTVYVEEGGSENLYFQGGGGGGYCAPTGRGADPKFYTPDAARKRDEQDKSYPVPKKLLKVRFLSDVGNTMPIAFVPLQREVEVLVGEPALAFYSAYNRSNRTLLGVSSYTIAPPEVTNYLNKIQCFCFEEQRFKPHELVEMPVFFYIDRDFLNDSMVNWLDEVIVNYTFFNLEKTKDYIFRPNAR,not soluble
8,MGSSHHHHHHMRVDGREKTELRHIHIHTNYLKHPEGSVLIEVGDTKVICSATIEERVPPFMRGEGKGWVTAEYAMIPRATEQRTIRESSKGKVTGRTMEIQRLIGRALRAVVDLEALGERTVWIDCDVIQADGGTRTASITGAYVAMVLAFEKLLQAEKVSKIPVKDYLAATSVGIVEEQGVVLDLNYAEDSKADVDMNVIMTGKGQFVEVQGTGEEATFSRAQLNELLDAAEQGIFQLIDIQKEALGDIVSHIE,soluble
9,MGSSHHHHHHSQDPMDYFNIKQNYYTGNFVQCLQEIEKFSKVTDNTLLFYKAKTLLALGQYQSQDPTSKLGKVLDLYVQFLDTKNIEELENLLKDKQNSPYELYLLATAQAILGDLDKSLETCVEGIDNDEAEGTTELLLLAIEVALLNNNVSTASTIFDNYTNAIEDTVSGDNEMILNLAESYIKFATNKETATSNFYYYEELSQTFPTWKTQLGLLNLHLQQRNIAEAQGIVELLLSDYYSVEQKENAVLYKPTFLANQITLALMQGLDTEDLTNQLVKLDHEHAFIKHHQEIDAKFDELVRKYDTSN,soluble
10,MGSSHHHHHHSSGLVPRGSHMASMDGKQGGMDGSKPAGPRDFPGIRLLSNPLMGDAVSDWSPMHEAAIHGHQLSLRNLISQGWAVNIITADHVSPLHEACLGGHLSCVKILLKHGAQVNGVTADWHTPLFNACVSGSWDCVNLLLQHGASVQPESDLASPIHEAARRGHVECVNSLIAYGGNIDHKISHLGTPLYLACENQQRACVKKLLESGADVNQGKGQDSPLHAVVRTASEELACLLMDFGADTQAKNAEGKRPVELVPPESPLAQLFLEREGASLPKPKP,soluble
11,MGSSHHHHHHSSGLVPRGSHMASNVKKFPEGFLWGVATASYQIEGSPLADGAGMSIWHTFSHTPGNVKNGDTGDVACDHYNRWKEDIEIIEKLGVKAYRFSISWPRILPEGTGRVNQKGLDFYNRIIDTLLEKGITPFVTIYHWDLPFALQLKGGWANREIADWFAEYSRVLFENFGDRVKNWITLNEPWVVAIVGHLYGVHAPGMRDIYVAFRAVHNLLRAHARAVKVFRETVKDGKIGIVFNNGYFEPASEKEEDIRAVRFMHQFNNYPLFLNPIYRGDYPELVLEFAREYLPENYKDDMSEIQEKIDFVGLNYYSGHLVKFDPDAPAKVSFVERDLPKTAMGWEIVPEGIYWILKKVKEEYNPPEVYITENGAAFDDVVSEDGRVHDQNRIDYLKAHIGQAWKAIQEGVPLKGYFVWSLLDNFEWAEGYSKRFGIVYVDYSTQKRIVKDSGYWYSNVVKNNGLED,soluble
12,MGSSHHHHHHSSGLVPRGSHMFLTRRDPPLSSFWTKVQYQRLKELNASGEQLEMGFSDALSRDRAFQGIEHQLMSQGKRHLEQLRTVKHRPALLELEEKLAKALHQQGFVQVVTPTIITKSALAKMTIGEDHPLFSQVFWLDGKKCLRPMLAPNLYTLWRELERLWDKPIRIFEIGTCYRKESQGAQHLNEFTMLNLTELGTPLEERHQRLEDMARWVLEAAGIREFELVTESSVVYGDTVDVMKGDLELASGAMGPHFLDEKWEIFDPWVGLGFGLERLLMIREGTQHVQSMARSLSYLDGVRLNIN,soluble
13,MGSSHHHHHHSSGLVPRGSHMMRKQRIVIKISGACLKQNDSSIIDFIKINDLAEQIEKISKKYIVSIVLGGGNIWRGSIAKELDMDRNLADNMGMMATIINGLALENALNHLNVNTIVLSAIKCDKLVHESSANNIKKAIEKEQVMIFVAGTGFPYFTTDSCAAIRAAETESSIILMGKNGVDGVYDSDPKINPNAQFYEHITFNMALTQNLKVMDATALALCQENNINLLVFNIDKPNAIVDVLEKKNKYTIVSK,soluble
14,MGSSHHHHHHSSGLVPRGSHMNESIVISLGGSVISGDPIDADYMKSFARILEASKYRRVGIVTGGGRTARSYISVLRKLNVNENVLDEIGIYATRMNALSMASLIPGSNPTIPFTVEDAVNLMNTYRFVVMGGTEPGHTTDTVAALLCERSATRTLINVTSVDGVYDMDPHRFANAKRFDRIGYREAIALSTKSSAGAGPNVFMDITALTIAMRSRIRVIVTSRDIDNLEKILKGDRAVSTFIDDDQRS,soluble
15,MGSSHHHHHHSSGLVPRGSHMTEIYTSVLSYRLLEGKAYSDADTRSLDRMMRSIDEFFSANPGYINFHIYRSYRTDSDVIFWYSSRNPDLMILAKERVQASMRPIAVSSFSSISIYDESPYNAMNKKLEDSLRLPPLRYFVAYPMSKTPDWYLLDFDTRKEIMHEHIKMALNHPDEKGIRSYTTYSFGIGDQEFVVLYEIPDIAAWSRVTEKLREARARKWIIKETPILLGRLVDAGDIAGFLL,soluble
16,MGSSHHHHHHSSGLVPRGSHMVASETLKTKKMEVQIKKNFPSVLQYTMTDGKVMYGQSKDVRTVEINGTNIELGDDDVTFKKVSDTEATYTLKVKDEAKKIDAVITVQITVKANQLHLNVTKIKNNLSEGIPEGNGVEENAIQTLSFPNQSLVSVRSSQENAQFTGARMSSNTQKPGDTNFAVTEDTNVTDSDYTYGFISGAGLSAGLWSNSEHDGTYVAAPVRGGSQNTRVYATTQQTGDATSLGLASAPWYYHRTVTDSKGKKYTVAETALPQMAVAIAGDENEDGAVNWQDGAIAYRDIMNNPYKSEEVPELVAWRIAMNFGSQAQNPFLTTLDNVKKVALNTDGLGQSVLLKGYGNEGHDSGHPDYGDIGQRLGGADDMNTMMEEGSKYGARFGVHVNASEMYPEAKAFSEDMVRRNSAGGLSYGWNWLDQGVGIDGIYDLASGSRVSRFADLSKEVGDNMDFIYLDVWGNLTSSGSEDSWETRKMSKMINDNGWRMTTEWGSGNEYDSTFQHWAADLTYGGYTSKGENSEVMRFLRNHQKDSWVGDYPQYGGAANAPLLGGYNMKDFEGWQGRNDYAAYIKNLYTHDVSTKFIQHFKVTRWVNNPLLTADNGNAAAVSDPNTNNGNEQITLKDSNGNVVVVSRGSNDTSSAAYRQRTITFNGVKVASGVVSAGDGSATGDESYLLPWMWDSFTGKLVKDSEQKLYHWNTKGGTTTWTLPDSWKNLSSVKVYQLTDQGKTNEQTVAVSGGKVTLTADAETPYVVYKGEAKQIQVNWSEGMHVVDAGFNGGSNTLTDNWTVSGSGKAEVEGDNNAMLRLTGKVDVSQRLTDLKAGQKYALYVGVDNRSTGDASVTVTSGGKVLATNSTGKSIAKNYIKAYGHNTNSNTENGSSYFQNMYVFFTAPENGDATVTLSHKSTDGAHTYFDDVRIVENQYSGITYEKDGTLKSLTNGFENNAQGIWPFVVSGSEGVEDNRIHLSELHAPFTRAGWDVKKMDDVLDGTWSVKVNGLTQKGTLVYQTIPQNVKFEAGAKYKVSFDYQSGSDDIYAIAVGQGEYSAGSVKLTNLKKALGETGKAEFELTGGVNGDSWFGIYSTATAPDLQGSTGNAQDFGGYKDFVLDNLKIERIESQTRTKAEAQDKVKEIRGKYDSKRAELSDAAWQQYQDTLVKARVLINKNGATAEDFTKAYDILVALDEYMKTAPGNESSDKYDVAADGSDELGGYTVATGSEEPTAGLPSEGPADLAQDGNDSTHWHTSWSENAVGNGTAWYQFNLNEPTTINGLRYLPRSGGMNANGKIKGYKITLTLADGTTKDVVTDAEFSTTTMWQKASFDAVENVTAVRLTVLSSAGQSDSQANKFASAAELRLTTDRE,soluble
